5 molecules from patent US20110300071A1, “TARGETING NPR-C IN ANGIOGENESIS AND ATHEROSCLEROSIS WITH A C-TYPE ATRIAL NATRIURETIC FACTOR (CANF)-COMB NANOCOMPLEX” (Washington University, priority 2010, published 2011) can be followed below.

A short description of data set [1]: in vitro. The format is in vitro ADME. The note with it: rabbit, serum. Here is the method: On the contrary, only free ^64Cu was detected in the control samples (^64Cu-acetate incubated in rabbit serum) by radio-HPLC.
Data set [2] is described as follows: in vivo. The note with it: rabbit, iv, total radioactivity. On the procedure: In these experiments, the blood clearance studies were performed in normal rabbits (n=4) to evaluate the pharmacokinetics of tracer in vivo. About 20 MBq of ^64Cu-DOTA-C-ANF was injected intravenously into the left ear of rabbit, and blood sample (0.2 mL) was drawn from the contralacteral ear over the period of 1 h (1 min, 3 min, 5 min, 10 min, 20 min, 40 min and 60 min). The activity of the blood samples were counted in gamma counter and presented in percent injected dose per gram (ID %/g).

In data set [3] the test system is atherosclerotic lesions. The data set can be described thus: MRI of Gadofluorine uptake in atherosclerotic-like lesions. The format is in vivo, rabbit. Particulars: 3T MRI 1 hour after administration. On the procedure:
The presence of atherosclerotic lesions in the rabbits was confirmed by 3T MRI 1 hour after administration of a non-receptor specific plaque-targeting contrast agent (Gadofluorine M, 0.5 μmol/kg body weight, Schering AG, Germany) (Sirol, M., et al., Circulation 109:2890-2896, 2004; Zheng, J., et al., Invest. Radiol. 43:49-55, 2008; Meding, J., et al., Mol. Imaging 2:120-129, 2007). […] For scanning, the rabbit was placed supine into a plastic bed. Three micropipette tubes filled with 0.5 mL Gadofluorine M served as fiducial markers, and were taped into position on the bed. At the beginning of the PET study, these tubes were drained of the Gadofluorine by syringe, and refilled with 0.5 mL of ^64Cu to serve as the PET fiducials. These helped to “co-localize” the plaque regions between the two image modalities.

Data set [4] deals with natriuretic peptide clearance receptor (NPR-C), rabbit (rabbit) (UniProt G1SZF5). The data set can be described thus: cell-based or functional assay.
Data set [5] concerns the target T1, natriuretic peptide clearance receptor (NPR-C), rabbit (rabbit, UniProt G1SZF5 25-536).
T1 sequence: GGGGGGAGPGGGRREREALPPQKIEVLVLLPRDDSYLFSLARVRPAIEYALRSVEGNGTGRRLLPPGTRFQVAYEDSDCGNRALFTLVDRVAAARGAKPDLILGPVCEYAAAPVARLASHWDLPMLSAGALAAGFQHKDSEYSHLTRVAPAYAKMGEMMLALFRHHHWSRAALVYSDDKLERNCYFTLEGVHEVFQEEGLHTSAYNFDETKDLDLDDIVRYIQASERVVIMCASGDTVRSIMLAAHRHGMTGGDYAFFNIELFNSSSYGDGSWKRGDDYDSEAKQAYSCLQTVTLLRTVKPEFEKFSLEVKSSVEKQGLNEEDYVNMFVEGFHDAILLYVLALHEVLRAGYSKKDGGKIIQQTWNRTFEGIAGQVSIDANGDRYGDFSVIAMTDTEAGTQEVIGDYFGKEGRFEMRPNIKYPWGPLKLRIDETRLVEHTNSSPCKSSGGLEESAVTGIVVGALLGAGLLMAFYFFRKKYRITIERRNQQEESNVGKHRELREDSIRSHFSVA
Put plainly: cell-based or functional assay.

For data set [6], the target named is T2, natriuretic peptide clearance receptor (NPR-C), mouse (mouse, UniProt P70180 41-536).
T2 sequence (looked up): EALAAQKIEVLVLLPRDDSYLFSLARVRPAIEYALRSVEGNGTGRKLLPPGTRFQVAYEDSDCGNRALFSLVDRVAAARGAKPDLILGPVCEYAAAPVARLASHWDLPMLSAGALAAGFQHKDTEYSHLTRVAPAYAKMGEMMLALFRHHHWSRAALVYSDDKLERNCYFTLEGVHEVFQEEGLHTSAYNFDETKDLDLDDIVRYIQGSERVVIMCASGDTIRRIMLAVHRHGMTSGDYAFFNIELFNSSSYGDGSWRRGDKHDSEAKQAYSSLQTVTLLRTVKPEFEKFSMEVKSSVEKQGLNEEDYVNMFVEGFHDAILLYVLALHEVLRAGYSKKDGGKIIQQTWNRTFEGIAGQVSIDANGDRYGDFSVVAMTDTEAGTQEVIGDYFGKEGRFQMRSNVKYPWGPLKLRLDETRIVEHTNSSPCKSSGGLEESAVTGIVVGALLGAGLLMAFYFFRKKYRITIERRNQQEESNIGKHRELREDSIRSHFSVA
Put plainly: cell-based or functional assay.

Data set [7] concerns the target T1, natriuretic peptide clearance receptor …. The data set can be described thus: cell-based or functional assay. The source holds these as a separate data set.
In data set [8] the target is natriuretic peptide clearance receptor (NPR-C), mouse (mouse) (UniProt P70180). Put plainly: cell-based or functional assay.

Positions of bridges follow the written chain, without caps; N, C: chain ends. Residues, ends and D or L forms follow the SMILES beside them. No end group written: not given here. *: point of attachment. DOTA = O=C(O)CN1CCN(CC(=O)O)CCN(CC(=O)*)CCN(CC(=O)O)CC1

For `CC[C@H](C)[C@@H]1NC(=O)[C@H](CCCNC(=N)N)NC(=O)[C@H](CC(=O)O)NC(=O)[C@H]([C@@H](C)CC)NC(=O)[C@H](CCCNC(=N)N)NC(=O)CNC(=O)CNC(=O)[C@H](Cc2ccccc2)NC(=O)[C@@H](NC(=O)[C@H](CO)NC(=O)[C@H](CO)NC(=O)[C@H](CCCNC(=N)N)NC(=O)CN2CCN(CC(=O)O)CCN(CC(=O)O)CCN(CC(=O)O)CC2)CSSC[C@@H](C(N)=O)NC(=O)[C@H](C)NC(=O)CNC1=O` [^64Cu-DOTA-CANF, metal not drawn] ({DOTA}-RSSCFGGRIDRIGAC-NH2; disulfide 4-15), the fraction remaining at 1 h in data set [1] is 97.7 ± 3.9%. The tissue uptake at 0.05 h in data set [2] was found to be 0.1 %ID/g.
On to `CC(C(=O)NCC(=O)NCCCC[C@H](NC(=O)CO[C@H]1O[C@H](CO)[C@@H](O)[C@H](O)[C@@H]1O)C(=O)N1CCN(S(=O)(=O)C(F)(F)C(F)(F)C(F)(F)C(F)(F)C(F)(F)C(F)(F)C(F)(F)C(F)(F)F)CC1)N1CCN(CC(=O)O)CCN(CC(=O)O)CCN(CC(=O)O)CC1` (stereo partly shown) [Gadofluorine M], for which, in data set [3], the “uptake in control arteries (MRI)” value was “no Gadofluorine M uptake”. The “MRI signal in injured vessels” value in data set [3] (all rabbits, all time points) was “increased signal”.

B1: ^64Cu-CANF-Comb (25% CANF-Comb) (peptide)
peptide: RSSCFGGRIDRIGAC-NH2
modifications: disulfide 4-15; not fully specified; also: 64Cu label
As for B1, in data set [4], the Injury SUV, 1 h is 5.31 SUV; the Injury SUV, 4 h turned out to be 4.76 SUV; the Injury SUV, 24 h was 3.74 SUV; the Injury/control SUV ratios, 1 h was determined as 4.07. Also, in data set [4], the Injury/control SUV ratios, 4 h amounted to 4.07; the Injury/control SUV ratios, 24 h came out at 4.24; the Injury/muscle SUV ratios, 1 h came to 38.2; the Injury/muscle SUV ratios, 4 h was 37.7. In addition, the Injury/muscle SUV ratios, 24 h in data set [4] is 40.8.

B2: ^64Cu labeled DOTA-C-type atrial natriuretic factor (CANF) conjugate (peptide)
peptide: RSSCFGGRIDRIGAC-NH2
modifications: disulfide 4-15; also: DOTA conjugated, site not given here, 64Cu chelated
In the case of B2, in data set [5], the “SUV ratio injured/control arteries, blocking with unlabeled C-ANF” value is 1.07 ratio; the “SUV ratio injured/control arteries, pre-blocking” value was determined as 1.42 ratio; the “target-to-background ratio injured artery/muscle, blocking” value is 2.13 ratio; the “target-to-background ratio injured artery/muscle, pre-blocking” value worked out at 3.05 ratio. Moreover, in data set [6], the “ischemic/nonischemic uptake ratio, after blocking with unlabeled CANF” value was found to be 1.24 ratio and the “ischemic/nonischemic uptake ratio, before blocking” value came out at 2.34 ratio. Moreover, in data set [7], the “Injury/control SUV ratios, 1 h” value is 1.87 ratio and the “Injury/muscle SUV ratios, 1 h” value was 3.39 ratio.

B3: ^64Cu-DOTA-CANF-Comb nanoprobe (peptide)
peptide: RSSCFGGRIDRIGAC-NH2
modifications: disulfide 4-15; also: acylated with 4-pentynoic anhydride, clicked to azide-PEG methacrylate of PMMA-core/PEG-shell comb copolymer nanoparticle, DOTA in particle core chelates 64Cu
On to B3, for which, in data set [8], the ischemic/nonischemic uptake ratio, 1 h p.i. was found to be 4.35; the ischemic/nonischemic uptake ratio, 24 h p.i. was 5.35; the tracer uptake in ischemic limb, 1 h p.i. came to 6.3 % ID/g; the tracer uptake in ischemic limb, 24 h worked out at 8.5 % ID/g. Besides, in data set [8], the uptake in lesion site with receptor blocking, 1 h was 3.34; the uptake in lesion site with receptor blocking, 4 h was found to be 3.34; the uptake in lesion site with receptor blocking, 24 h came to 3.31; the uptake ratio with receptor blocking, 1 h p.i. turned out to be 1.93. Besides, in data set [8], the uptake ratio with receptor blocking, 4 h p.i. turned out to be 1.87 and the uptake ratio with receptor blocking, 24 h p.i. came out at 1.82.

One may read the share remaining as what is left of the initial amount, in per cent. A low value points to more turnover. The tissue uptake is the share of the injected amount in each gram of the tissue.
